Source: patent US20090186842, “Methods and compositions for inhibition of viral replication” (published 2009)
Where a chain is given by its changes, count along the chain named.

Legend:
GST-TIAR RRM1 = biological target: T1, GST-TIAR RRM1 (UniProt Q01085 Q01085:9-85); test: EMSA; 200 nM protein; conditions: tags: GST fusion; label: 32P; stem-loop
T1 sequence: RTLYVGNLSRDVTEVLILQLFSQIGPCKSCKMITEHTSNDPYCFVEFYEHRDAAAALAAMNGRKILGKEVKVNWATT

GST-TIAR RRM3 = biological target: T2, GST-TIAR RRM3 (UniProt Q01085 Q01085:205-277); test: EMSA; 200 nM protein; conditions: tags: GST fusion; label: 32P; stem-loop
T2 sequence: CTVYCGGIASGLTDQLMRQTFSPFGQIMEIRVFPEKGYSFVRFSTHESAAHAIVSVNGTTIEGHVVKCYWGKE

GST-TIA-1 RRM3 = biological target: T3, GST-TIA-1 RRM3 (UniProt P31483 P31483:214-286); test: EMSA; 500 nM protein; conditions: tags: GST fusion; label: 32P; stem-loop
T3 sequence: T2 sequence with I8V, A9T, D14E, E35D, S44N, T45S

GST-TIA-1 RRM1 = biological target: T4, GST-TIA-1 RRM1 (UniProt P31483 P31483:7-83); test: EMSA; 500 nM protein; conditions: tags: GST fusion; label: 32P; stem-loop
T4 sequence: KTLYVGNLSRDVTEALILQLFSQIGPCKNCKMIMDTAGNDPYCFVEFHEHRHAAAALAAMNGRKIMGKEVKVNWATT

GST-TIA-1 RRM2 = biological target: T5, GST-TIA-1 RRM2 (UniProt P31483 P31483:106-184); test: EMSA; SD 15 nM, n=1.1; conditions: tags: GST fusion; label: 32P; stem-loop
T5 sequence: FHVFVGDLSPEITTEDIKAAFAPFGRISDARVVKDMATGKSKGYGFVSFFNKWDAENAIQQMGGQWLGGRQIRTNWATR

GST-TIAR RRM2 = biological target: T6, GST-TIAR RRM2 (UniProt Q01085 Q01085:97-175); test: EMSA; SD 5 nM, n=1.2; conditions: tags: GST fusion; label: 32P; stem-loop
T6 sequence: T5 sequence with A19S, R26K, F50Y, W53L, Q60V, Q61H

TIARa (rTIAR) = biological target: T7, TIARa (rTIAR) (Mus musculus, UniProt P70318 P70318:1-392); test: EMSA; 5-90 nM protein, 0.2 nM RNA, 1 mM MgCl2, 30 mM KCl, RT; conditions: tags: C-terminal His6; label: 32P; stem-loop; AU-rich loops L1, L2, L3
T7 sequence: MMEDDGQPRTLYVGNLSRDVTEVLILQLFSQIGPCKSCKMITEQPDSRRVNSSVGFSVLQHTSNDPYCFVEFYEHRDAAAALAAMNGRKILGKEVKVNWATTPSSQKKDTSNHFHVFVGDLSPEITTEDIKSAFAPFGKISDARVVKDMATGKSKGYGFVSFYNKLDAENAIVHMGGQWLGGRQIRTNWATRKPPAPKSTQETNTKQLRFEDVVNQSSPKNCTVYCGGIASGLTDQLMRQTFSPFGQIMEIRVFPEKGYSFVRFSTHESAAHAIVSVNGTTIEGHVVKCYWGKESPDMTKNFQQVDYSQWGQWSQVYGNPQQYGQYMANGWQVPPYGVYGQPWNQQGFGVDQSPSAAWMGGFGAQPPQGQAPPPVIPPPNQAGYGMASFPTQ

B1: WNV 3'(-)SL RNA with 5' CCC (ssRNA)
RNA: CCCCAGCUCGCACCGUGUUAAUUGUUGUUAAUCCUCACAAACACUACUAAGUUUGUCAGCUCACACAGGCGAACUACU
binding result (GST-TIAR RRM1): no binding
binding result (GST-TIAR RRM3): no binding
binding result (GST-TIA-1 RRM3): no binding
binding result (GST-TIA-1 RRM1): no binding
Kd (GST-TIA-1 RRM2): 112 nM
Kd (GST-TIAR RRM2): 15 nM

B2: WNV3'(-)SL RNA (ssRNA)
RNA: CAGCUCGCACCGUGUUAAUUGUUGUUAAUCCUCACAAACACUACUAAGUUUGUCAGCUCACACAGGCGAACUACU
binding result (TIARa (rTIAR)): binds
